Values quoted from earlier work in paper PMC10564622.
pKd: −log10 of the molar value. Where two headings read alike, the source gives them in different places.

Experiments:
CUL3 NTD (Homo sapiens) [1] = molecular target: CUL3 NTD (Homo sapiens) (UniProt Q13618)
[2] = molecular target: CUL3 NTD with N-terminal deletion (Homo sapiens) (UniProt Q13618)
CUL3 NTD (Homo sapiens) [3] = molecular target: CUL3 NTD (Homo sapiens) (UniProt Q13618); remark: listed apart in the source

Chain of CUL3 NTD (Homo sapiens) (Q13618 20-381): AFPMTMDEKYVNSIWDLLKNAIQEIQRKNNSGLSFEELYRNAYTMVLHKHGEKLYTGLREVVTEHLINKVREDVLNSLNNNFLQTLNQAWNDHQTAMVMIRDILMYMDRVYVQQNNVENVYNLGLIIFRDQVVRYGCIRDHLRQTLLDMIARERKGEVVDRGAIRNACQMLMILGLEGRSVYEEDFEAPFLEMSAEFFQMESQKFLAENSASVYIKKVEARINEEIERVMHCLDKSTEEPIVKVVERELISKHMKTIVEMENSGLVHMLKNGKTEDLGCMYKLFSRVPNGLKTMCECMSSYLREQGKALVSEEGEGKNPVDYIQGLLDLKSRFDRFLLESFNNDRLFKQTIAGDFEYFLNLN
Chain of SPOP BTB-3-box (O43791 177-319): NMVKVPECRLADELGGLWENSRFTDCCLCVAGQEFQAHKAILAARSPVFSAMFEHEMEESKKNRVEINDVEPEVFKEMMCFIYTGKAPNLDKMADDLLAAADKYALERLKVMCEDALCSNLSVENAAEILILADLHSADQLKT
Chain of SPOP BTB (O43791 170-300): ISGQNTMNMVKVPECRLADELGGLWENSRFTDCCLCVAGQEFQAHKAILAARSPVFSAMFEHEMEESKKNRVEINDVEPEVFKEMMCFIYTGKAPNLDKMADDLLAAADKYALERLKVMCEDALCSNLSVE
Chain of CUL3 NTD with N-terminal deletion (Homo sapiens) (Q13618 20-381, stated change not applied): as the sequence (Q13618 20-381) above
Chain of KLHL3 BTB-BACK (Q9UH77 24-276): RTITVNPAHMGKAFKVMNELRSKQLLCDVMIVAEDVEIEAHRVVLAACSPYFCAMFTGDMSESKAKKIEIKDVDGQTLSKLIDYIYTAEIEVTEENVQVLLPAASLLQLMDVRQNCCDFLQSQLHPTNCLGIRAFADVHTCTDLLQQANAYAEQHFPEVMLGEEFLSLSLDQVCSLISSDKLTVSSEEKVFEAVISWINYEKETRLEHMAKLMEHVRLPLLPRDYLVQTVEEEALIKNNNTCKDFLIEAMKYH

SPOP BTB-3-box (from UniProt O43791)
pKd (CUL3 NTD (Homo sapiens) [1]): 7.77

KLHL3 BTB-BACK (from UniProt Q9UH77)
pKd [2]: 6.96

SPOP BTB (from UniProt O43791)
pKd (CUL3 NTD (Homo sapiens) [3]): 6.00
